Results as given in patent publication US20030082135A1, “Pathway of RANTES-mediated chemokine synthesis in astrocytes and methods of use therefor” (priority 2001, published 2003).

B1: eotaxin: recombinant mouse chemokine, RANTES-related, purchased from R&D System (protein, UniProt P48298 24-97, looked up)
Eotaxin: HPGSIPTSCCFIMTSKKIPNTLLKSYKRITNNRCTLKAIVFKTRLGKEICADPKKKWVQDATKHLDQKLQTPKP

Assays:
[1] = test system: MEK, ERK1/2, p90RSK, p38, SAPK/JNK phosphorylation in astrocytes; assay: Western blotting of phosphorylated MAP kinase pathway proteins in astrocyte lysates; format: cell-based, mouse
Protocol: SDS-PAGE and Western blotting. Astrocytes were treated for the indicated time with media or 100 ng/ml RANTES, eotaxin, or other materials as indicated. Cells (3×10^5 in Examples 1-3, or 2×10^4 in later Examples) were resuspended in 100 μl buffer (50 mM HEPES, pH 7.5, 150 mM NaCl, 2 mM EDTA, 2 mM EGTA, 1% Triton X-100, 50 mM Sodium fluoride, 5 mM Sodium pyrophosphate, 50 mM Sodium β-glycerophosphate, 1 mM Sodium Ortho-vanadate, 1 mM DTT, 1 mM PMSF, 10 μg/ml Leupeptin, and 10 μg/ml Aprotinin). Protein concentration of the whole cell extract was determined by BCA protein assay kit (Pierce, Rockford, Ill.). Samples (10 μg) were loaded and separated on a 10% SDS-polyacrylamide gel. After transfer to Hybond ECL nitrocellulose membrane (Amersham Pharmacia Biotech Inc, Piscataway, N.J.) or Zeta-probe blotting membranes (Bio-Rad, Richmond Calif.) blots were blocked overnight with 5% BSA at 4° C., and probed with the antibody indicated. Antibody against unphosphorylated or phosphorylated erk (Cell Signaling, Beverly, Mass.) was used at 1 μg/ml. Appropriate anti-immunoglobulin reagents were used to develop the blots by enhanced chemiluminescence (Amersham Pharmacia Biotech Inc, Piscataway, N.J.).
Little is known about the signaling mechanisms involved in astrocyte respones to chemokines. To examine components of the RANTES signal transduction pathway, phosphorylation of the MAP kinase kinase (MEK) and mitogen activated protein (MAP) kinases was examined. To minimize basal kinase activity, astrocytes were starved of serum for at least 3 h before treatment with chemokine. Whole cell lysates were separated by SDS-PAGE and examined by Western blot. Antibodies that specifically react with phosphorylated MEK or phosphorylated extracellular signal-related kinase (ERK) were used to detect the active kinases.

astrocytes [2] = test system: astrocytes
PKA = PKA activity assay on lysates of treated astrocytes; format: cell-based, mouse
Protocol: PKA activity assay. PKA activity was determined using a commercially available kit (Calbiochem, San Diego, Calif.) according to manufacturer's recommendations. Primary mouse astrocytes were grown in 6-well plates and then stimulated as described and lysed in 100 μl buffer (same buffer used for Western blotting) for 30 min. Five μl of the lysates were incubated with 20 μl PKA reaction mixture at 30° C. for 30 min. The reaction was terminated by adding 10 μl stop solution and ^32P radioactivity was counted.

[3] = test system: primary neonatal mouse astrocyte cultures; assay: RNase protection assay (RPA) for chemokine/cytokine transcripts in astrocyte cultures; format: cell-based
Protocol: Astrocyte isolation and culture. […] RNA isolation and RNase protection assay (RPA). […] RNase protection assays (RPA) for chemokine message were conducted with multi-probe templates according to the manufacture's protocol (RiboQuant assay kit, BD-PharMingen, San Diego, Calif.). Gels were scanned and radioactive bands quantitated using a phosphoimager (Molecular Dynamics, Sunnyvale, Calif.). Levels of uniformly expressed housekeeping genes large ribosomal subunit protein 32-3A (L32) or glyceraldehyde-3-phosphate dehydrogenase (GAPDH), were used for normalization. The value of each chemokine receptor band divided by the value of the indicated housekeeping gene band in the same sample yielded the relative intensity. Normalized receptor expression represents the ratio of the relative intensity following treatment with chemokine versus the relative intensity of medium alone. Treatment with pharmacological inhibitors. Astrocytes were washed and resuspended in serum-and insulin-free complete medium and starved overnight. Cells were treated at 37° C. for 1 h with 100 ng/ml Pertussis toxin (PTx) before addition of RANTES or IL-1. […] The cells were harvested after a 3 h incubation with RANTES; RNA was prepared and assayed by RPA.

[4] = test system: cultured mouse astrocytes; assay: RT-PCR for KC message in astrocytes; format: cell-based
[5] = test system: CXCR4, CX3CR1, CCR1, CCR5 transcripts in astrocytes; assay: RPA for chemokine receptor transcripts in astrocytes; format: cell-based, mouse; settings: average, pooled results of 3-4 experiments
Protocol: RNA isolation and RNase protection assay (RPA). RNA was prepared as in Luo, Y., et al. 1999. J Immunol 163:3985. RNase protection assays (RPA) for chemokine message were conducted with multi-probe templates according to the manufacture's protocol (RiboQuant assay kit, BD-PharMingen, San Diego, Calif.). Gels were scanned and radioactive bands quantitated using a phosphoimager (Molecular Dynamics, Sunnyvale, Calif.). Levels of uniformly expressed housekeeping genes large ribosomal subunit protein 32-3A (L32) or glyceraldehyde-3-phosphate dehydrogenase (GAPDH), were used for normalization. The value of each chemokine receptor band divided by the value of the indicated housekeeping gene band in the same sample yielded the relative intensity. Normalized receptor expression represents the ratio of the relative intensity following treatment with chemokine versus the relative intensity of medium alone.
Treatment with the RANTES-related chemokines RANTES or eotaxin, or with TNF-α also found to down-regulate expression of CX3CR1 transcripts. In addition, CXCR4 mRNA levels were decreased, while the levels of CCR1 transcripts were elevated. In contrast, little or no regulation of CCR5 was noted. The pooled results of 3-4 experiments indicate eotaxin caused an average 60% decrease in CXCR4 (P less than 0.01) and a 70% decrease in CX3CR1 mRNA (P less than 0.02) (FIG. 8.B). The effects of RANTES stimulation were similar with an average 70 and 90% reduction in CXCR4 and CX3CR1 transcripts, respectively (P less than 0.01).

astrocytes [6] = assay: ELISA of KC, TNF-α and MCP-1 protein in astrocyte culture supernatants; format: cell-based, mouse; settings: 48 h, 1.5 to 100 ng/ml tested

| Molecule | effect on MEK and erk1/2 phosphorylation induced by RANTES [1] | effect on astrocyte viability or expression of the housekeeping genes L32 and GAPDH (astrocytes [2]) | effect on PKA activity (PKA) | effect on RANTES-induced chemokine/cytokine gene expression ([3]; increasing doses, 1 h pretreatment, 100 ng/ml RANTES 3 h) | synthesis of KC message [4] | decrease in CX3CR1 mRNA [5] [%] | decrease in CXCR4 mRNA [5] [%] | concentration inducing KC protein (astrocytes [6]) [ng/mL] | production of chemokine transcripts by astrocytes from mice deficient for CCR1, CCR2, CCR3, or CCR5 ([3]; 100 ng/ml) | expression of TNF-α, RANTES, KC, MIP-1α, MIP-2, and MCP-1 transcripts ([3]; BALB/cJ neonatal astrocytes, chemokine for 6 h) | ability to induce chemokine transcripts after boiling ([3]; boiled for 30 min before incubation with astrocytes) |
| --- | --- | --- | --- | --- | --- | --- | --- | --- | --- | --- | --- |
| O=C1Nc2ccc(I)cc2/C1=C/c1cc(Br)c(O)c(Br)c1 [Raf-1 inhibitor, reference compound] | blocked | failed to affect | neither U0126 nor Raf-1 inhibitor decreased PKA activity | blocked gene expression in a dose dependent fashion |  |  |  |  |  |  |  |
| B1 |  |  |  |  | induce synthesis of KC message | 70 | 60 | ≥ 25 | specifically responded | up-regulated | completely destroyed |
